Measurements published in patent US9320770B2, “Blood vessel maturation, normalization or stabilization agent and wrinkle preventer/improver” (Shiseido Company, Ltd., priority 2008, dated 2016).

Legend:
Assay type in all cases: cell-based
[1] = test system: Normal human umbilical vein endothelial cells and normal human dermal fibroblasts; experiment: Evaluation of angiogenesis inhibitory action (angiogenesis kit, lumen formation in the presence of VEGF-A)
Procedure: Evaluation of Angiogenesis Inhibitory Action
A test was conducted for confirming the angiogenesis inhibitory action of cinnamon bark hot water extract.
Normal human umbilical vein endothelial cells and normal human dermal fibroblasts were co-cultured at a constant ratio using an angiogenesis kit (Kurabo Industries) and prepared in the growth state of the initial stage of lumen formation. The cells were incubated (under conditions of 37° C. and 5% CO2) after adding medium containing a prescribed concentration of cinnamon bark hot water extract in the presence of 10 ng/ml of vascular endothelial cell growth factor A (VEGF-A, Kurabo Industries). […] The stained images obtained from each well were then photographed (FIG. 4), and the images were analyzed using the length and surface area of lumen formation as indicators to evaluate angiogenesis inhibitory action (FIGS. 5 and 6). Image analysis for the length of lumen formation and image analysis for surface area were respectively carried out using angiogenesis quantification software (Kurabo Industries). […] Moreover, angiogenesis inhibitory action in the presence of VGF-A was also evaluated for Ang-1, which is known to have an action that is responsible for vascular stabilization.

full-length murine TIE2 = biological target: T1, full-length murine TIE2 (Mus musculus, UniProt Q02858); experiment: Tie-2 phosphorylation evaluation in Baf3 cells (BaF/TIE2), Western blotting; conditions: extracts 100 ppm, Angiopoietin-1 0.5 ppm, 10 minutes, FIG. 1 and 2
T1 construct: Ba/F3 transduced with full-length murine TIE2(BaF/TIE2); expressed in transfected cells; host or cells: Ba/F3 (murine pro-B cell line)
T1 sequence (Q02858 23-1122): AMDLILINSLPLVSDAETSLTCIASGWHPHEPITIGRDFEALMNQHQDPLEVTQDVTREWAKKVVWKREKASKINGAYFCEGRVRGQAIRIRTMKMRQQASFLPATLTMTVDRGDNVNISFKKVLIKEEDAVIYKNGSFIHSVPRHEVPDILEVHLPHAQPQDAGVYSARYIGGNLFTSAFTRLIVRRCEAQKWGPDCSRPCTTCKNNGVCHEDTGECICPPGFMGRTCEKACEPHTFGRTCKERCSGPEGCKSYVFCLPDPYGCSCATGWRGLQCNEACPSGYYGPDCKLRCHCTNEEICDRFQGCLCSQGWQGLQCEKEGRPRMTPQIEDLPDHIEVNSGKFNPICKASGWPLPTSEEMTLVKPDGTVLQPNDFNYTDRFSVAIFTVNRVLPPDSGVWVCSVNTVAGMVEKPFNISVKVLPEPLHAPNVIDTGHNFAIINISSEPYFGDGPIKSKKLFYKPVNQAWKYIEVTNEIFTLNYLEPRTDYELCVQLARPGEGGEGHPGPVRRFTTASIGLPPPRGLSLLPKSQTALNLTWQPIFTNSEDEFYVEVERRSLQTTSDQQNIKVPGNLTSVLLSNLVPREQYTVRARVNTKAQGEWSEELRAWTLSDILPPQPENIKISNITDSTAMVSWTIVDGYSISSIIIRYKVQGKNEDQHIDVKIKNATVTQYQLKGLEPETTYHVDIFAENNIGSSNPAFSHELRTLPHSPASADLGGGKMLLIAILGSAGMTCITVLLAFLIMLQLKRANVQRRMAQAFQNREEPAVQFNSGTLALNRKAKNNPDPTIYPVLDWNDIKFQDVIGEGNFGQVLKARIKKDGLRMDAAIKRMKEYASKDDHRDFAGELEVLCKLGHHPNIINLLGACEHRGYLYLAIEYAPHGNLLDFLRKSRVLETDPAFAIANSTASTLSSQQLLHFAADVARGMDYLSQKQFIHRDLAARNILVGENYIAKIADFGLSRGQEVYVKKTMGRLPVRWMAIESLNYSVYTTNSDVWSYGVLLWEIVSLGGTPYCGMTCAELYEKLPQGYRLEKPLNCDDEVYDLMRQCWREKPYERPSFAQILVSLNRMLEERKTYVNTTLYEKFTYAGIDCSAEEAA
Procedure: Tie-2 Phosphorylation Evaluation Method
(§1) Baf3 cells, a murine pro-B cell line, Ba/F3 transduced with full-length murine TIE2(BaF/TIE2) were incubated in RPMI 1640 medium in the presence of IL-3 (Biosource, PMC0034) and 10% FCS. The cells were plated into a 6-well plate at 2×10^6 cells/1.5 mL/well and incubated overnight while omitting the FCS starting on the day before cell stimulation. DMSO solutions of the aforementioned hot water extract dry residues, Angiopoietin-1 (R&D System, 932-AN) as a positive control or DMSO as a negative control were added to the wells at a final concentration of 100 ppm, 0.5 ppm and 1000 ppm, respectively, followed by incubating for 10 minutes, cooling the cells on ice and washing with chilled PBS. The cells were then ultrasonically homogenized in RIPA buffer containing protease inhibitors (leupeptin, aprotinin, pepstatin, PMSF, Na3VO4). Sample buffer (0.2 M Tris-HCl (pH 6.8), 4% SDS, 20% glycerol, 5 mM EDTA, 0.01% BPB) was then added followed by carrying out SDS-PAGE (7.5% polyacrylamide gel, 12 wells, NPU-7.5L, Atto Corp.) under the conditions indicated below.
Gel: 7.5% acrylamide gel (NPU-7.5L, Atto Corp.)
Phoresis conditions: 40 mA (75 minutes, 2 gel sheets) […]
(§2) Next, Western blotting (20 V, 4° C., overnight) was carried out for transcription to a PVDF membrane. […] Protein bands were detected by chemiluminescence detection (ECL).

Tie-2 = biological target: T2, Tie-2 (Homo sapiens, UniProt Q02763); experiment: Tie-2 phosphorylation evaluation in HUVEC; conditions: evaluated in the same manner as Baf3 cells, FIG. 3
T2 construct: Tie-2 phosphorylation was similarly evaluated using normal human umbilical vein endothelial cells (HUVEC); endogenous in cells; host or cells: HUVEC (normal human umbilical vein endothelial cells)
T2 sequence (Q02763 23-1124): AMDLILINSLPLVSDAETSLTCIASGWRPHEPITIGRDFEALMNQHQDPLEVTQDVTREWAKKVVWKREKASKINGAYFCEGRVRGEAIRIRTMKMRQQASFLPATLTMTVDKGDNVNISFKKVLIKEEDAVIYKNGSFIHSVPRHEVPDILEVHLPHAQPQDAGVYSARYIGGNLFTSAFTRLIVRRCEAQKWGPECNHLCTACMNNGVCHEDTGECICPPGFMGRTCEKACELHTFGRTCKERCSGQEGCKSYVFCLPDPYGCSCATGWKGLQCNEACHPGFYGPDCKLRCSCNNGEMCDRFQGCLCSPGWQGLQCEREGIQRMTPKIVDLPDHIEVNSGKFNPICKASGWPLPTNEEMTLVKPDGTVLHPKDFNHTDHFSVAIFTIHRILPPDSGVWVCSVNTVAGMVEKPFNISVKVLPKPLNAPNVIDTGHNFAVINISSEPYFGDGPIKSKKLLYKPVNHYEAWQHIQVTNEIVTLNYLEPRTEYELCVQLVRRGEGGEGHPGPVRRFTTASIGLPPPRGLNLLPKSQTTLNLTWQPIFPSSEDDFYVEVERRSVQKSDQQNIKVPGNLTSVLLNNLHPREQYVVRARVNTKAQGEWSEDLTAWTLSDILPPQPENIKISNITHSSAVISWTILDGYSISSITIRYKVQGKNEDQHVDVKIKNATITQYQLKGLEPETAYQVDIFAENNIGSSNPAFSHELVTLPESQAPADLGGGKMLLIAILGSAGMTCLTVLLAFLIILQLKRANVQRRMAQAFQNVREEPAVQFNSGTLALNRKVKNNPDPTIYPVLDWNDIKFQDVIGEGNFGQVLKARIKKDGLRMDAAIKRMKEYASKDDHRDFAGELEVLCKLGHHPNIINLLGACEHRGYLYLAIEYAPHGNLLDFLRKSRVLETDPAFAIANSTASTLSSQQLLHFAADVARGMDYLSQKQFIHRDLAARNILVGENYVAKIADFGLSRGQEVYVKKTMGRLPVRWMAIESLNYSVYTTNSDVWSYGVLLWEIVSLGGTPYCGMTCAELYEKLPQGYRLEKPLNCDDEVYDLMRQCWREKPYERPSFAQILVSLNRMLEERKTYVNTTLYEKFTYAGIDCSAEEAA
Procedure: as §1, §2
2) Tie-2 phosphorylation was similarly evaluated using normal human umbilical vein endothelial cells (HUVEC). […]

| Tie-2 phosphorylation (full-length murine TIE2) | Tie-2 phosphorylation (Tie-2) | Molecule | lumen formation (stained image) ([1]; cultured with VEGF-A 10 ng/ml, FIG. 4, cinnamon bark extract particularly at 300 ppm) | angiogenesis inhibitory action (length and surface area of lumen formation) ([1]; angiogenesis induced by VEGF-A 10 ng/ml, FIGS. 5 and 6, cinnamon bark extract 10 to 300 ppm) |
| --- | --- | --- | --- | --- |
| – | – | Cc1ccc(C(=O)Nc2ccc(S(=O)(=O)O)c3cc(S(=O)(=O)O)cc(S(=O)(=O)O)c23)cc1NC(=O)c1cccc(NC(=O)Nc2cccc(C(=O)Nc3cc(C(=O)Nc4ccc(S(=O)(=O)O)c5cc(S(=O)(=O)O)cc(S(=O)(=O)O)c45)ccc3C)c2)c1 [Suramin, reference compound] | lumen formation was determined to be inhibited | – |
| phosphorylation of Tie-2 | phosphorylation of Tie-2 | Ang-1: Angiopoietin-1 (R&D System, 932-AN), positive control known to activate Tie-2 (protein, UniProt Q15389 16-498, looked up) Angiopoietin-1: HIGCSNQRRSPENSGRRYNRIQHGQCAYTFILPEHDGNCRESTTDQYNTNALQRDAPHVEPDFSSQKLQHLEHVMENYTQWLQKLENYIVENMKSEMAQIQQNAVQNHTATMLEIGTSLLSQTAEQTRKLTDVETQVLNQTSRLEIQLLENSLSTYKLEKQLLQQTNEILKIHEKNSLLEHKILEMEGKHKEELDTLKEEKENLQGLVTRQTYIIQELEKQLNRATTNNSVLQKQQLELMDTVHNLVNLCTKEGVLLKGGKREEEKPFRDCADVYQAGFNKSGIYTIYINNMPEPKKVFCNMDVNGGGWTVIQHREDGSLDFQRGWKEYKMGFGNPSGEYWLGNEFIFAITSQRQYMLRIELMDWEGNRAYSQYDRFHIGNEKQNYRLYLKGHTGTAGKQSSLILHGADFSTKDADNDNCMCKCALMLTGGWWFDACGPSNLNGMFYTAGQNHGKLNGIKWHYFKGPSYSLRSTTMMIRPLDF | – | did not have angiogenesis inhibitory action |
